{"source": "paper doi:10.1101/2023.11.05.565221", "about": "“Evolutionary origin and structural ligand mimicry by the inserted domain of alpha-integrin proteins” (bioRxiv, 2023)", "binders": {"B1": {"name": "Fc-tagged E-cadherin ectodomain (Fc fusion, UniProt P12830 155-698, looked up)", "chain": "DWVIPPISCPENEKGPFPKNLVQIKSNKDKEGKVFYSITGQGADTPPVGVFIIERETGWLKVTEPLDRERIATYTLFSHAVSSNGNAVEDPMEILITVTDQNDNKPEFTQEVFKGSVMEGALPGTSVMEVTATDADDDVNTYNAAIAYTILSQDPELPDKNMFTINRNTGVISVVTTGLDRESFPTYTLVVQAADLQGEGLSTTATAVITVTDTNDNPPIFNPTTYKGQVPENEANVVITTLKVTDADAPNTPAWEAVYTILNDDGGQFVVTTNPVNNDGILKTAKGLDFEAKQQYILHVAVTNVVPFEVSLTTSTATVTVDVLDVNEAPIFVPPEKRVEVSEDFGVGQEITSYTAQEPDTFMEQKITYRIWRDTANWLEINPDTGAISTRAELDREDFEHVKNSTYTALIIATDNGSPVATGTGTLLLILSDVNDNAPIPEPRTIFFCERNPKPQVINIIDADLPPNTSPFTAELTHGASANWTIQYNDPTQESIILKPKMALEVGDYKINLKLMDNQNKDQVTTLEVSVCDCEGAAGVCRKA", "notes": "E-cadherin ectodomain, D155-A698 (limits count on the precursor); Held on Protein A biosensors by the Fc; source: ExpiCHO cells, secreted, purified (HiTrap Protein G, SEC); not shown: Fc (human), C-terminal, kept"}}, "molecular_target": "T1, wildtype αEβ7 ectodomain (human, UniProt P38570 19-1123; P26010 20-723, N-linked glycan at N303 (N321 in the legend of Figure 4))", "T1 construct": "signal peptide in the construct; integrin alpha-E (CD103) ectodomain, M1-H1123 (limits count on the precursor); integrin beta-7 ectodomain, M1-H723 (limits count on the precursor); Wild-type αE construct 'used for integrin:e-cadherin complex'; The αEβ7 of the BLI assay is not specified; also called integrin αEβ7; source: ExpiCHO cells, α and β co-transfected, secreted, purified (HisTrap, SEC)", "T1 sequence (P38570 19-1123, chain 1 of 2)": "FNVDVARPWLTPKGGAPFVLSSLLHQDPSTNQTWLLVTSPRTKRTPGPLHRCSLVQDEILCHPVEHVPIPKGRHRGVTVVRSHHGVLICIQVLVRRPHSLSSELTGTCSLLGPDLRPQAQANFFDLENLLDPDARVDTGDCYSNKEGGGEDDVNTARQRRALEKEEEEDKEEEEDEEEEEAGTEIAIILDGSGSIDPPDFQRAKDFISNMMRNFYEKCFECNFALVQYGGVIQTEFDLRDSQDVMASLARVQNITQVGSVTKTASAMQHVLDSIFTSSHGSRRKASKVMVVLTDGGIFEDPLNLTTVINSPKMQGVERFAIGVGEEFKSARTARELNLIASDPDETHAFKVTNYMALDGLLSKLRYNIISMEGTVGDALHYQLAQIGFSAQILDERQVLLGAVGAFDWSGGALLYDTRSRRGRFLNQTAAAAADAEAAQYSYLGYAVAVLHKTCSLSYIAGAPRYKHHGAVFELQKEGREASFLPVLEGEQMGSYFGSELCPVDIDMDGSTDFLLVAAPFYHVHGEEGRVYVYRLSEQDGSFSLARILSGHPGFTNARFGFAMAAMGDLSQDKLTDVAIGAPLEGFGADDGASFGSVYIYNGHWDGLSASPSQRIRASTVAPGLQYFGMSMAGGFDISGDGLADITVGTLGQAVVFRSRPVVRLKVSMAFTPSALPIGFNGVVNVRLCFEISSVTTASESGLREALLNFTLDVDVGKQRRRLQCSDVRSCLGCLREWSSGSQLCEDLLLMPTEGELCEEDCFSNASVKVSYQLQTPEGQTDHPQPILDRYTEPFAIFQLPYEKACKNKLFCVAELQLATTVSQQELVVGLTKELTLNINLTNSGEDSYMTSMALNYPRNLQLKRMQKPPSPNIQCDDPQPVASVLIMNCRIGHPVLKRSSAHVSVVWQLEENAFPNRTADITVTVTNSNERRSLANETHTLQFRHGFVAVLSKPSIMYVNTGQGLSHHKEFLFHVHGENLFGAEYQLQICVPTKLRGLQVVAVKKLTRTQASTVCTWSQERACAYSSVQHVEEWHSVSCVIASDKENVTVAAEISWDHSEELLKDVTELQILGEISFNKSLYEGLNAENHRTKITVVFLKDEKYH", "T1 sequence (P26010 20-723, chain 2 of 2)": "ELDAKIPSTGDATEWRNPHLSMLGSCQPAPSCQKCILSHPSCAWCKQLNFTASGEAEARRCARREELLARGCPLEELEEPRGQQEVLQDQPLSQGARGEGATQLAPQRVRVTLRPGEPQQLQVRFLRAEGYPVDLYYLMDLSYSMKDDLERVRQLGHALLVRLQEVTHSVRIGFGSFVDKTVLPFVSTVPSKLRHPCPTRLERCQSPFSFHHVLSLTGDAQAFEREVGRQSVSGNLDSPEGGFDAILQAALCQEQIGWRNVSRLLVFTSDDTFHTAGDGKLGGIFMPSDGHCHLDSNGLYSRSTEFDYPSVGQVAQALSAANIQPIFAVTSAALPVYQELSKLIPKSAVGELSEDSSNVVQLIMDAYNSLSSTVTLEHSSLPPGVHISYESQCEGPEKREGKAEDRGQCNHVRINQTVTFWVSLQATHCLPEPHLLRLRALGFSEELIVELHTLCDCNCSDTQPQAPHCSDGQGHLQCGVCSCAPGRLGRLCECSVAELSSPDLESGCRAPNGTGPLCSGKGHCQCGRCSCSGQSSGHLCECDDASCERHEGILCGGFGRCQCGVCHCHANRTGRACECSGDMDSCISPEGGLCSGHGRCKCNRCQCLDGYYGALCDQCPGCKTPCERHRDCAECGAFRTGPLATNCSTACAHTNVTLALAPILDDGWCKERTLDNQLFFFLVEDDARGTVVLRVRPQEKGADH", "assay": "BLI; Octet Red, 25°C; Fc-tagged E-cadherin ectodomain loaded on Protein A biosensors; αEβ7 500nM to 16.125nM in activating buffer with 0.1% BSA and 0.02% Tween-20; 1:1 model, global fit of three replicates", "settings": "both partners purified", "data": [{"binder": "B1", "values": [{"measurement": "Kd", "value": "51 ± 7.9", "unit": "nM"}]}]}
